This note sets out measurements from patent publication US20180094075A1 (Pfizer, published 2018).

Test [1] deals with human PTK7 expressed on cells (cancer cell lines with endogenous PTK7; HEK293T-PTK7 over-expressing cells) (human) (UniProt Q13308). Briefly: flow cytometry, NB4 cells, 10 µg/ml Ab. In general terms: Flow cytometry measures light scatter and fluorescence of single cells or particles in a stream.
Test [2] has the same target. Briefly: flow cytometry, TF1 cells, 10 µg/ml Ab.
Test [3] shares this target. Briefly: flow cytometry, H446 cells, 10 µg/ml Ab.
Test [4] shares this target. Briefly: flow cytometry, H522 cells, 10 µg/ml Ab.
The target is the same in test [5]. Briefly: flow cytometry, K562 cells, 10 µg/ml Ab.
Test [6] shares this target. Briefly: flow cytometry, TF1a cells, 10 µg/ml Ab.
The target is the same in test [7]. Briefly: flow cytometry, BxPC3 cells, 10 µg/ml Ab.
For test [8] the target is unchanged. Briefly: flow cytometry, DMS79 cells, 10 µg/ml Ab.
Test [9] has the same target. Briefly: flow cytometry, H1299 cells, 10 µg/ml Ab.
Test [10] shares this target. Briefly: flow cytometry, H2110 cells, 10 µg/ml Ab.
Test [11] shares this target. Briefly: flow cytometry, HCC70 cells, 10 µg/ml Ab.
For test [12] the target is unchanged. Briefly: flow cytometry, THP-1 cells, 10 µg/ml Ab.
Test [13] has the same target. Briefly: flow cytometry, BT-549 cells, 10 µg/ml Ab.
The target is the same in test [14]. Briefly: flow cytometry, DMS114 cells, 10 µg/ml Ab.
Test [15] shares this target. Briefly: flow cytometry, HCC1806 cells, 10 µg/ml Ab.
Test [16] shares this target. Briefly: flow cytometry, HEL92.1 cells, 10 µg/ml Ab.
For test [17] the target is unchanged. Briefly: flow cytometry, MiaPaca cells, 10 µg/ml Ab.
Test [18] shares this target. Briefly: flow cytometry, HL60 MX2 cells, 10 µg/ml Ab.
The target is the same in test [19]. Briefly: flow cytometry, Kasumi-1 cells, 10 µg/ml Ab.
The target is the same in test [20]. Briefly: flow cytometry, MDAMB468 cells, 10 µg/ml Ab.

Sequence of human PTK7 expressed on cells (cancer cell lines with endogenous PTK7; HEK293T-PTK7 over-expressing cells) (human) (Q13308 31-1070 L93P limits assumed): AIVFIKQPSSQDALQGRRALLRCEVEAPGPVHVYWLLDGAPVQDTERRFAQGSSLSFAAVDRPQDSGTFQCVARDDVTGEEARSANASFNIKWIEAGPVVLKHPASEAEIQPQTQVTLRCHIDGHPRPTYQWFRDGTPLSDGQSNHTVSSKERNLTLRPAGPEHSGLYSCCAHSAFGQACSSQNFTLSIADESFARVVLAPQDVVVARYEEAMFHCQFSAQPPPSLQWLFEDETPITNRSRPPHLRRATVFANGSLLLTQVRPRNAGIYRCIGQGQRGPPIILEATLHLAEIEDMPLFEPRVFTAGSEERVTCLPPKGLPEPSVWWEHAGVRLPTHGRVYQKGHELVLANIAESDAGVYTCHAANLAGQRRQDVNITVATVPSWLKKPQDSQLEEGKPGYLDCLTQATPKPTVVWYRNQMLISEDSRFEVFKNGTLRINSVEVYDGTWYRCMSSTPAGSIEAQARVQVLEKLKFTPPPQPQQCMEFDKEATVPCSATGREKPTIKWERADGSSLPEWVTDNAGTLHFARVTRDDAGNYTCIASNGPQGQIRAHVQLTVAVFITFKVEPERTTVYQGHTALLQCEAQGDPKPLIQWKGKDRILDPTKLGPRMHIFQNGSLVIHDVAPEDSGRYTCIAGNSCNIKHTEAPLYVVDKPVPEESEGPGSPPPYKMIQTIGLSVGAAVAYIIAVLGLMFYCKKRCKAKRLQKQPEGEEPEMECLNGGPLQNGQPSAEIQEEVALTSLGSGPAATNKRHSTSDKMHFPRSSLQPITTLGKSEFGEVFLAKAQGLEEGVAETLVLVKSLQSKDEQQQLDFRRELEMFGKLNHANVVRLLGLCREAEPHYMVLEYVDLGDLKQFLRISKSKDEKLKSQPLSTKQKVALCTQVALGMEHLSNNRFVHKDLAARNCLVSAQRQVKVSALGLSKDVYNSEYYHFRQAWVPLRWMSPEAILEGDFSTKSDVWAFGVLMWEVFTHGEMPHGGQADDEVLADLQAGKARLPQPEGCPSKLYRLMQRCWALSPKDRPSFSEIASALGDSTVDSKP

With “Negative Control Ab (Table 8) (antibody)”, the Mean Fluorescent Intensity in [1] is 6.8; in [2] it was 5.9; in test [3], 7.1; in test [4], 3.8; in test [5], 54.7; in test [6], 6.2. For the same substance, the Mean Fluorescent Intensity in test [7] was 4.6; in test [8], 8.5; in test [9] it was 3; in [10], 4.9; in test [11], 9.4; in [12], 4. The Mean Fluorescent Intensity came out at 3.6 in test [13]; 9.9 in test [14]; 4.6 in test [15]; 7.7 in [16]; 3.5 in [17]; 25.2 in [18]. In addition, the results for the Mean Fluorescent Intensity in test [19] and in test [20] were 5.3 and 12, respectively.
